For experiment [1], the target named is YY1 cellular transcription factor (UniProt P25490). In words: co-immunoprecipitation (FLAG-EBNA-LP IP, YY1 immunoblot, band signal quantified). The conditions noted are these: 50% IP lanes; trans-complemented LPKO LCLs from total B cells; parent: 1.0.
Experiment [2] has the same target. In words: co-immunoprecipitation (YY1 IP, FLAG-EBNA-LP immunoblot, band signal quantified). The conditions noted are these: 50% IP lanes; trans-complemented LPKO LCLs; parent: 1.

Chain of UniProt P25490 (P25490 whole entry): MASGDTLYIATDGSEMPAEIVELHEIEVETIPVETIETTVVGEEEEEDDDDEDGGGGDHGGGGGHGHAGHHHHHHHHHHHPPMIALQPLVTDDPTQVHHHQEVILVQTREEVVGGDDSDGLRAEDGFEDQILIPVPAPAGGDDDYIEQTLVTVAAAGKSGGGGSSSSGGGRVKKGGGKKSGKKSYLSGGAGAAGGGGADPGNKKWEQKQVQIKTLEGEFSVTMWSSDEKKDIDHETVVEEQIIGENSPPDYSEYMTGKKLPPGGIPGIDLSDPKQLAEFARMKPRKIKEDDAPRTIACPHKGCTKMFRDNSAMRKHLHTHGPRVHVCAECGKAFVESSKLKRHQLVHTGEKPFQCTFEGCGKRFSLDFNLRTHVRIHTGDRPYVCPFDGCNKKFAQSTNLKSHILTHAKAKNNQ

For “FLAG-EBNA-LP, wild type (B95-8), four W domains W:L25A; W:L28A; W:L29A; Y:L13A; Y:L17A; Y:L18A”, the response in experiment [1] turned out to be 0.01; in experiment [2], 0.

(Values after publication doi:10.1101/2024.01.07.574580.)
